Source: IntAct's records for PubMed 19624469

B1: Protein phosphatase 2C 16 (Arabidopsis thaliana (Mouse-ear cress)), Q9CAJ0 (parent)
chain: MEEMTPAVAMTLSLAANTMCESSPVEITQLKNVTDAADLLSDSENQSFCNGGTECTMEDVSELEEVGEQDLLKTLSDTRSGSSNVFDEDDVLSVVEDNSAVISEGLLVVDAGSELSLSNTAMEIDNGRVLATAIIVGESSIEQVPTAEVLIAGVNQDTNTSEVVIRLPDENSNHLVKGRSVYELDCIPLWGTVSIQGNRSEMEDAFAVSPHFLKLPIKMLMGDHEGMSPSLTHLTGHFFGVYDGHGGHKVADYCRDRLHFALAEEIERIKDELCKRNTGEGRQVQWDKVFTSCFLTVDGEIEGKIGRAVVGSSDKVLEAVASETVGSTAVVALVCSSHIVVSNCGDSRAVLFRGKEAMPLSVDHKPDREDEYARIENAGGKVIQWQGARVFGVLAMSRSIGDRYLKPYVIPEPEVTFMPRSREDECLILASDGLWDVMNNQEVCEIARRRILMWHKKNGAPPLAERGKGIDPACQAAADYLSMLALQKGSKDNISIIVIDLKAQRKFKTRT
partner: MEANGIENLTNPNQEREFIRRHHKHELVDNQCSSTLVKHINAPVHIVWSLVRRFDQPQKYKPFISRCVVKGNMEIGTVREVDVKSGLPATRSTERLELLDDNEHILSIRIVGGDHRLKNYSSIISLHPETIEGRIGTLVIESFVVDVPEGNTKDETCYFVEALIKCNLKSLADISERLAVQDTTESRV
B2: Protein phosphatase 2C 16 (Arabidopsis thaliana (Mouse-ear cress)), Q9CAJ0 (parent)
chain: B1 chain
B3: Protein phosphatase 2C 16 (Arabidopsis thaliana (Mouse-ear cress)), Q9CAJ0 (parent)
chain: B1 chain
partner: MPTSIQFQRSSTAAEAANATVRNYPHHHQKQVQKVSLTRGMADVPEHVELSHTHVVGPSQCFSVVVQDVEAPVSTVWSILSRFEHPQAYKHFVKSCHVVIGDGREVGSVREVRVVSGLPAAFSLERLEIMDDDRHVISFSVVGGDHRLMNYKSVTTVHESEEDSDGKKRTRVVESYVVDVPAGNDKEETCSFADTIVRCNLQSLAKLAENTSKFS
B4: Protein phosphatase 2C 16 (Arabidopsis thaliana (Mouse-ear cress)), Q9CAJ0 (parent)
chain: B1 chain
partner: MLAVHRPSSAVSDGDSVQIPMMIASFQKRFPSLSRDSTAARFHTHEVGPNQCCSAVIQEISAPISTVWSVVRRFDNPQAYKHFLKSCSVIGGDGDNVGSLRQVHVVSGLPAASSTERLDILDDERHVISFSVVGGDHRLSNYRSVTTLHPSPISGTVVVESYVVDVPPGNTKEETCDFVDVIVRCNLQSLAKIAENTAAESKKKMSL
B5: Protein phosphatase 2C 16 (Arabidopsis thaliana (Mouse-ear cress)), Q9CAJ0 (parent)
chain: B1 chain
partner: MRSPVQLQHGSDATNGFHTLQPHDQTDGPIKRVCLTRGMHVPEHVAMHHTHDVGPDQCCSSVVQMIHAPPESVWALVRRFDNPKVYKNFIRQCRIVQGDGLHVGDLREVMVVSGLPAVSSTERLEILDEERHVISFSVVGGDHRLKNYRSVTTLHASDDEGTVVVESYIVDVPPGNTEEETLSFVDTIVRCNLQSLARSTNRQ

Variants of: B1
Settings: with pyl8_arath PYL8, Q9FGM1

Row | effect of a mutation on the interaction | Variant
1 | disrupting interaction | G246D

Variants of: B2
Settings: with pyr1_arath PYR1, O49686

Row | effect of a mutation on the interaction | Variant
2 | disrupting interaction | G246D

Variants of: B3
Settings: with pyl6_arath PYL6, Q8S8E3

Row | effect of a mutation on the interaction | Variant
3 | disrupting interaction | G246D

Variants of: B4
Settings: with pyl4_arath PYL4, O80920

Row | effect of a mutation on the interaction | Variant
4 | disrupting interaction | G246D

Variants of: B5
Settings: with pyl5_arath PYL5, Q9FLB1

Row | effect of a mutation on the interaction | Variant
5 | disrupting interaction | G246D
